± gives the half width of the 95% confidence interval.
How the values were obtained:
[1] = folding stability dG unfold from trypsin proteolysis; higher = more stable
Method in brief: (§1)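 Unfolding free energy was derived, per protease or combined, by relating Bayesian-fitted K50 values from sequencing counts to a sequence-predicted unfolded-state K50 and a shared folded-state K50. The underlying digests exposed cysteine-free mini-proteins under 80 residues, in a PA-tagged cDNA display construct, to trypsin and chymotrypsin at 11 threefold-diluted concentrations and to a no-protease condition. A filter kept only designs with AlphaFold2 dimer inter-PAE above 15.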

[2] = folding stability dG unfold (combined trypsin and chymotrypsin); higher = more stable
Method in brief: as §1

[3] = folding stability dG unfold from chymotrypsin proteolysis; higher = more stable
Method in brief: as §1

| Sequence | folding stability dG unfold [1] | folding stability dG unfold [2] | folding stability dG unfold [3] |
| --- | --- | --- | --- |
| SAGEVKPGETVTLTIVLSKEELEKLEELAKALPGVEVTEVKVEKLPDGLVRVTITVTKEALEKLKELLESAG [r5_554_TrROS_Hall] | 3.28 ± 0.21 kcal/mol | 3.5 ± 0.19 kcal/mol | 3.71 ± 0.22 kcal/mol |
| SAGGSAGGSAVYRTEDGRWVLVVEEVDGELTVHVYRRVDGRWELVETYPLEDLSPEARAALSAGGSAGGSAG [r3_241_TrROS_Hall] | 1.48 ± 0.025 kcal/mol | 2.03 ± 0.053 kcal/mol | 2.33 ± 0.029 kcal/mol |
| SAGMDKPLKVLEIGGAILPNTGKVVLKAKVEDPDSNTPLDLTLTLPVVDPVTGKPYIFTASYTYESPLSAGG [r19_129_TrMRF] | 0.338 ± 0.13 kcal/mol | 0.681 ± 0.12 kcal/mol | 0.844 ± 0.17 kcal/mol |
| SAGGSAMKLTLKDKKGNTLFLEVEEKTSEDGTPYYEVKIYYPNTNKVEYAEVPVENLEEFAKKLADSAGGSA [r15_92_TrMRF] | 3.21 ± 0.09 kcal/mol | 3.25 ± 0.18 kcal/mol | 3.31 ± 0.086 kcal/mol |
| SAGGMVILVKDKDGRWRELSEEEIRRLAEELERRYNLEVEEVELEDGERYYLIRIEPPEVPGLSEEELSAGG [r13_790_TrROS_Hall] | 1.97 ± 0.059 kcal/mol | 2.23 ± 0.21 kcal/mol | 2.15 ± 0.13 kcal/mol |
| SAGGTIKITIKAENLTEEEKEELAKKIADELKKKGYKVKKVEVTVEKEKEKTVTITLENGKKIEVKLSAGGS [r8_485_TrROS_Hall] | 1.49 ± 0.072 kcal/mol | 2.31 ± 0.18 kcal/mol | 2.56 ± 0.038 kcal/mol |
| SAGGSAGGSLEKIKEALKKAGYPPENVVIEVKTLPNGEIVITVKYNGKEIPKEIVEEAIKKLKSAGGSAGGS [r12_175_JUSTAS] | 2.69 ± 0.081 kcal/mol | 3.45 ± 0.066 kcal/mol | 3.72 ± 0.08 kcal/mol |
| SAGGSAGGSAGGMTAIIVESEEEAKKIAEEKGIKDVKFIPKGKPELLKPDVDKVIKINKKSAGGSAGGSAGG [r7_381_JUSTAS] | -0.282 ± 0.22 kcal/mol | 0.102 ± 0.33 kcal/mol | 0.348 ± 0.075 kcal/mol |
| SAGNRYEVNLTYMYPPDDPGLIEKIKKILRKLGWEIEKVKEQRMPDNKMRMVTHKIRIPGLPPEALKAFSAG [r14_956_TrROS] | 0.918 ± 0.16 kcal/mol | 1.31 ± 0.37 kcal/mol | 1.27 ± 0.23 kcal/mol |
| SAGGSAGGSAGGVGKDKPVIIKIKIKRKVYGLNTPELIAEEEEEIVVVVHPDVNPEKIKPSAGGSAGGSAGG [r7_591_TrMRF] | 1.06 ± 0.074 kcal/mol | 1.83 ± 0.35 kcal/mol | 2.34 ± 0.056 kcal/mol |
| SAGGSAGGSAGPGLSITTTITTTTPAKLPNGTAPLRTTTTTIITELKPADPNNPVILANTSAGGSAGGSAGG [r11_236_JUSTAS] | 1.05 ± 0.053 kcal/mol | 0.746 ± 0.048 kcal/mol | 0.278 ± 0.069 kcal/mol |
| SAGGSAMKITLKPDGTLEIELPDGVKITITRNANGEVTITITYPDGETKTFPAGMTLEQVLAELLASAGGSA [r15_371_TrROS_Hall] | 3.56 ± 0.072 kcal/mol | 3.42 ± 0.051 kcal/mol | 3.3 ± 0.053 kcal/mol |
| SAGGSAGGSAGGMLYVKVKTEDGEELVLEVEGMTEDEIREELAKAGFKIEEIEVYEVEPSAGGSAGGSAGGS [r10_572_TrROS_Hall] | 2.36 ± 0.093 kcal/mol | 2.71 ± 0.06 kcal/mol | 2.83 ± 0.018 kcal/mol |
| SAYLMFMIPIKNDEITIKIPVPPGYYVRIFVFFPDGMEPRTIPPDEKVKIKIPKPGAWIMIMVYPAEEMSAG [r14_882_TrROS] | 3.38 ± 0.12 kcal/mol | 4.41 ± 0.14 kcal/mol | 5 ± 0.16 kcal/mol |
| SAGGSAGGSAGGMTTTTVSRSPDGTITTTTTTYVPTPDGSVVPVTTTTTTTPIDPAALSSAGGSAGGSAGGS [r10_991_JUSTAS] | 1.45 ± 0.046 kcal/mol | 1.42 ± 0.036 kcal/mol | 1.39 ± 0.017 kcal/mol |
| SAGGSAGGSAGGSGPPSLPGVLVEIPEPLPGPEGTEFSDPKGYKYTYDPSNGKVLVERASAGGSAGGSAGGS [r4_78_JUSTAS] | -0.753 ± 0.17 kcal/mol | -0.242 ± 0.19 kcal/mol | -0.0458 ± 0.16 kcal/mol |
| SAGGSAMVSLEEAKEATLREVKAALGFSPDATPEELRARGVPVRVPITVRDEKGNVIAELELELPGSAGGSA [r15_391_JUSTAS] | -0.118 ± 0.04 kcal/mol | 0.37 ± 0.039 kcal/mol | 0.571 ± 0.046 kcal/mol |
| SAGGSAMSITISDISSVKNLTITETTPDGTPVTVTVNATTGSGPPTLTFTATTPGTGATTTTTTAFSAGGSA [r15_1006_JUSTAS] | 0.693 ± 0.014 kcal/mol | 0.38 ± 0.051 kcal/mol | -0.299 ± 0.099 kcal/mol |
| SAGMPKTTVETEIRFVETEEGIEAVAEVRTETETRVVVIPGHLGPEEAIEVLEKLLEEEGLELSRVEIGSAG [r5_305_TrMRF] | 0.646 ± 0.032 kcal/mol | 0.542 ± 0.082 kcal/mol | 0.353 ± 0.038 kcal/mol |
| SAGGAEELAKALADELRKLFPGEEIEVTVELVEVEVEPGQKVTLPDGSTVEVPPGAKVLVLKITVKPSAGGS [r16_357_TrROS_Hall] | 3.13 ± 0.16 kcal/mol | 3.44 ± 0.14 kcal/mol | 3.56 ± 0.13 kcal/mol |
| SAGGSAGGSGSMKVYTHNVPPGQELTITITRGSSSTTLTFPPNTTVTITVPTSSPATITLTAPSAGGSAGGS [r12_550_JUSTAS] | 1.39 ± 0.031 kcal/mol | 1.74 ± 0.07 kcal/mol | 1.87 ± 0.054 kcal/mol |
